According to the supplement of paper PMC7877785:
± gives the uncertainty stated by the source.

Test: self-splicing fitness, log relative to wild type (ln ratio); higher = more splicing; Tetrahymena group I intron in knt gene, E. coli kanamycin selection, DiMSum; sequences stand for … in CUCUCU…GGAGGGAAAAGUUAUCAGGCAUGCACCUGGUAGCUAGUCUUUAAACCAAUAGAUUGCAUCGGUUUAAAAGGCAAGACCGUCAAAUUGCGGGAAAGGGGUCAACAGCCGUUCAGUACCAAGUCUCAGGGGAAACUUUGAGAUGGCCUUGCAAAGGGUAUGGUAAUAAGCUGACGGACAUGGUCCUAACCACGCAGCCAAGUCCUAAGUCAACAGAUCUUCUGUUGAUAUGGAUGCAGUUCACAGACUAAAUGUCGGUCGGGGAAGAUGUAUUCUUCUCAUAAGAUAUAGUCGGACCUCUCCUUAAUGGGAGCUAGCGGAUGAAGUGAUGCAACACUGGAGCCGCUGGGAACUAAUUUGUAUGCGAAAGUAUAUUGAUUAGUUUUGGAGUACUCGUGGUCG
In short: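 Six replicate transformations of E. coli BL21(DE3) with a pET-22b(+) library were grown overnight at 37°C or 30°C. The library randomised all eight P1ex-region intron nucleotides, the intron lying in the knt kanamycin-resistance gene, and plates were LB agar with or without 25 μg/mL kanamycin plus 100 μg/mL carbenicillin, 50 μM IPTG and 0.2% rhamnose. Pooled colonies were amplicon-sequenced on an Illumina HiSeq 2500, and fitness is the DiMSum error-weighted combination of wild-type-normalised replicate fold changes, kanamycin versus none.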

| Sequence | self-splicing fitness (ln) (30 °C) | self-splicing fitness (ln) (37 °C) |
| --- | --- | --- |
| GUUGAGCAAUAUUACGGCAU | -1.32 ± 0.12 | -0.928 ± 0.17 |
| GUUGAGCAAUAUUACGGCCC | -1.28 ± 0.19 | -0.757 ± 0.29 |
| GUUGAGCAAUAUUACGGCGG |  | -2.66 ± 0.36 |
| GUUGAGCAAUAUUACGGCUC | -2.04 ± 0.31 | -1.38 ± 0.31 |
| GUUGAGCAAUAUUACGGGGC | -2.38 ± 0.19 | -2.84 ± 0.29 |
| GUUGAGCAAUAUUACGGUCA | -1.81 ± 0.26 | -2.45 ± 0.29 |
| GUUGAGCAAUAUUACGGUCC | -2.05 ± 0.15 | -1.3 ± 0.19 |
| GUUGAGCAAUAUUACGGUCU | -3.49 ± 0.21 | -2.56 ± 0.18 |
| GUUGAGCAAUAUUACGUCAA | -2.76 ± 0.28 |  |
| GUUGAGCAAUAUUACGUCAG | -2.67 ± 0.17 | -2.86 ± 0.31 |
| GUUGAGCAAUAUUACGUCAU | -2.26 ± 0.21 | -2.44 ± 0.38 |
| GUUGAGCAAUAUUACGUCCU | -1.27 ± 0.17 | -1.47 ± 0.21 |
| GUUGAGCAAUAUUACGUUCC | -1.13 ± 0.26 | -1.31 ± 0.34 |
| GUUUAGCAAUAUUACGAAAU | -1.54 ± 0.11 | -1.85 ± 0.19 |
| GUUUAGCAAUAUUACGACAC | -0.84 ± 0.091 | 0.0746 ± 0.14 |
| GUUUAGCAAUAUUACGACAG | -3.68 ± 0.32 | -2.43 ± 0.34 |
| GUUUAGCAAUAUUACGAUAG | -3.5 ± 0.32 | -1.88 ± 0.31 |
| GUUUAGCAAUAUUACGCCAC | -1.72 ± 0.46 |  |
| GUUUAGCAAUAUUACGCUGU | -1.52 ± 0.12 | -2 ± 0.14 |
| GUUUAGCAAUAUUACGGAUU | -1.48 ± 0.097 | -0.737 ± 0.12 |
| GUUUAGCAAUAUUACGGGUG | -2.84 ± 0.21 | -1.53 ± 0.17 |
| GUUUAGCAAUAUUACGUACU | -0.0508 ± 0.3 | 0.333 ± 0.33 |
| GUUUAGCAAUAUUACGUAGC | -1.61 ± 0.2 | -0.831 ± 0.17 |
| GUUUAGCAAUAUUACGUAGU | -1.84 ± 0.14 | -0.706 ± 0.14 |

| Sequence | self-splicing fitness (ln) (30 °C) | self-splicing fitness (ln) (37 °C) |
| --- | --- | --- |
| GUUUAGCAAUAUUACGUCCA | -1.53 ± 0.24 | -1.18 ± 0.28 |
| GUUUAGCAAUAUUACGUGAA | -1.35 ± 0.12 | -2.04 ± 0.18 |
| GUUUAGCAAUAUUACGUUCU | -1.41 ± 0.14 | -0.628 ± 0.17 |
| GUUUAGCAAUAUUACGUUGC | -3.73 ± 0.27 | -2.59 ± 0.34 |
| UAAAAGCAAUAUUACGACCG | 0.0682 ± 0.1 | 0.499 ± 0.15 |
| UAAAAGCAAUAUUACGACUG | 0.248 ± 0.1 | -0.671 ± 0.12 |
| UAAAAGCAAUAUUACGAGCG | -0.13 ± 0.099 | -0.191 ± 0.11 |
| UAAAAGCAAUAUUACGAUCC | -2.13 ± 0.34 | -2.05 ± 0.27 |
| UAAAAGCAAUAUUACGAUCU | -0.413 ± 0.079 | 0.0961 ± 0.099 |
| UAAAAGCAAUAUUACGCACA | -0.0521 ± 0.12 | 0.516 ± 0.16 |
| UAAAAGCAAUAUUACGCAGG | -1.55 ± 0.12 | -1.2 ± 0.11 |
| UAAAAGCAAUAUUACGCCUG | -0.364 ± 0.088 | 0.229 ± 0.12 |
| UAAAAGCAAUAUUACGCGAG | -0.897 ± 0.075 | -0.186 ± 0.095 |
| UAAAAGCAAUAUUACGGAUC | -2.28 ± 0.29 | -1.81 ± 0.24 |
| UAAAAGCAAUAUUACGGCAG | -0.504 ± 0.079 | -0.106 ± 0.097 |
| UAAAAGCAAUAUUACGGCCC | -2.11 ± 0.34 | -1.28 ± 0.33 |
| UAAAAGCAAUAUUACGGUCA | 0.0761 ± 0.086 | 0.333 ± 0.087 |
| UAAAAGCAAUAUUACGGUUG | -1.53 ± 0.075 | -0.701 ± 0.096 |
| UAAAAGCAAUAUUACGUAGA | -2.7 ± 0.12 | -1.45 ± 0.14 |
| UAAAAGCAAUAUUACGUCCA | 0.0284 ± 0.091 | -0.623 ± 0.12 |
| UAAAAGCAAUAUUACGUGAU | -2.46 ± 0.11 | -2.04 ± 0.16 |
| UAAAAGCAAUAUUACGUGUA | -1.86 ± 0.055 | -0.743 ± 0.056 |
| UAAAAGCAAUAUUACGUGUG | -1.07 ± 0.052 | -0.712 ± 0.069 |
| UAAAAGCAAUAUUACGUUGU | -3.71 ± 0.14 | -1.96 ± 0.14 |
